The values below come from IntAct's records for PubMed 22770221.

Sequences and labels used below:
B1: 14-3-3 protein epsilon (Rattus norvegicus (Rat)), P62260 (parent)
chain: MDDREDLVYQAKLAEQAERYDEMVESMKKVAGMDVELTVEERNLLSVAYKNVIGARRASWRIISSIEQKEENKGGEDKLKMIREYRQMVETELKLICCDILDVLDKHLIPAANTGESKVFYYKMKGDYHRYLAEFATGNDRKEAAENSLVAYKAASDIAMTELPPTHPIRLGLALNFSVFYYEILNSPDRACRLAKAAFDDAIAELDTLSEESYKDSTLIMQLLRDNLTLWTSDMQGDGEEQNKEALQDVEDENQ
partner: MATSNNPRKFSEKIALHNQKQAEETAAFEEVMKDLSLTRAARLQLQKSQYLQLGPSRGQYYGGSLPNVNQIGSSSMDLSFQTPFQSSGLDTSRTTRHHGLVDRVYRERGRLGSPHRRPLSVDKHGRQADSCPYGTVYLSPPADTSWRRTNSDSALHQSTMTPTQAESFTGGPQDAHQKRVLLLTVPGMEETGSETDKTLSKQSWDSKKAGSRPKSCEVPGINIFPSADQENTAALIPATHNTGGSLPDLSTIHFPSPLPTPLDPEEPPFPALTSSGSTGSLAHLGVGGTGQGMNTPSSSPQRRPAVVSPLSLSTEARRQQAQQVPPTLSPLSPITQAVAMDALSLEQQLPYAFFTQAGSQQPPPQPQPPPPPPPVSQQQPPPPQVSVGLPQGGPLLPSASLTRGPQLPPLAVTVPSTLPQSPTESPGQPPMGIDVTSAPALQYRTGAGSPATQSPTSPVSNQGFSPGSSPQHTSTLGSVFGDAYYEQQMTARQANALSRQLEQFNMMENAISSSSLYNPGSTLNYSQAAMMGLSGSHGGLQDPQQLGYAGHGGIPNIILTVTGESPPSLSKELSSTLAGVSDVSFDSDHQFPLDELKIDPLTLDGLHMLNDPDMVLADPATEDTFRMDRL

In the assay the parent is B1. Conditions: with crtc1_rat Crtc1, Q157S1.
As to MDDREDLVYQAKLAEQAERYDEMVESMKKVAGMDVELTVEERNLLSVAYENVIGARRASWRIISSIEQKEENKGGEDKLKMIREYRQMVETELKLICCDILDVLDKHLIPAANTGESKVFYYKMKGDYHRYLAEFATGNDRKEAAENSLVAYKAASDIAMTELPPTHPIRLGLALNFSVFYYEILNSPDRACRLAKAAFDDAIAELDTLSEESYKDSTLIMQLLRDNLTLWTSDMQGDGEEQNKEALQDVEDENQ [K50E], the “effect of a mutation on the interaction” value is “decreasing interaction strength”.
